Where “and” joins values, the source holds several entries; their conditions need not be identical. Equal values may be shown once. Read-outs that look alike come from different tables or passages of the source.
Columns and labels:
recombinant human FGE = target: T1, recombinant human FGE (Homo sapiens, UniProt Q8NBK3); assay: In vivo conversion in CHO cells expressing recombinant human FGE and αHER2 mAb, additives in culture medium
T1 sequence (Q8NBK3 34-374): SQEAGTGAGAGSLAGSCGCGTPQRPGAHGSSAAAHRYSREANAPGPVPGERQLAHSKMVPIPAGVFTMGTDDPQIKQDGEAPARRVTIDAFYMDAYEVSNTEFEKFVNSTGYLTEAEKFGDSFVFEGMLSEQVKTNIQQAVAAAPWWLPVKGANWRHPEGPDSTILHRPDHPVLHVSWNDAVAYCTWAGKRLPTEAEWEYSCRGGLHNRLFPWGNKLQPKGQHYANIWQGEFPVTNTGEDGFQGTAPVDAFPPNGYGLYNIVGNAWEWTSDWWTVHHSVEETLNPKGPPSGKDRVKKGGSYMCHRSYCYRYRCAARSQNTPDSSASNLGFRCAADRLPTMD
Description: The effect on conversion in the presence of Cu^2+ (copper sulfate) in the cell culture medium of mammalian cells expressing FGEs and proteins that include FGE recognition sites was investigated. CHO cells expressing a recombinant human FGE and recombinant αHER2 mAb (heavy and light chain in same cell) containing the FGE recognition sequence LCTPSR (SEQ ID NO:4) were cultured FortiCHO media with the CellBoost4 feed, Efficient Feed C, and Efficient Feed C, supplemented with glucose and/or galactose.
The experimental conditions were the same as those used in the Cu^2+ experiments above.

Sc-FGE = Sc-FGE (Streptomyces coelicolor, UniProt Q9F3C7); type: biochemical, S. coelicolor
[1] = system: 14 amino acid peptide ALCTPSRGSLFTGR (SEQ ID NO:8); assay: Discontinuous FGE activity assay on peptide substrate (RP-HPLC); type: biochemical
Description: [formula] where Et is the total enzyme in solution, and kcat and KM are the standard enzymatic parameters specified by the STRENDA commission. Units of enzyme specific activity are the katal, where 1 kat=1 mol·s^−1. Kinetic parameters were determined from nonlinear regression of [substrate] v. initial velocity using GraphPad prism.
The specific activity of FGE was measuring using a discontinuous enzymatic activity assay. The substrate for FGE was a 14 amino acid peptide containing the consensus sequence (H2N-[…]-COOH (SEQ ID NO:8)). The rate of reaction was determined by integrating the peak area at 215 nm of the starting material (Cys) and product (fGly) containing peptides on reversed-phase HPLC. The identity of product (and side product) peaks were determined by RP-HPLC MS/MS. Each aqueous reaction solution (60 μL) contained substrate peptide (100 μM), FGE (1 μM), DTT (1 mM), and buffer (25 mM triethanolamine, pH 9). A single time course consisted of 5 data points collected every 2 minutes. The reaction was initiated upon addition of FGE stock solution and vortexing for 3 s. Time points were quenched by diluting 10 μL of reaction mixture into 1 μL of 1 M HCl by hand with a micropipettor. After completion of the reaction, each time point was analyzed by RP-HPLC.
Substrate, product, and side products of the FGE substrate peptide […] (SEQ ID NO:8) were separated on RP-HPLC over 7 min with isocratic 18% MeCN in water containing 0.1% TFA. The integrated area of the fGly (2.1 min), Cys (3.3 min), βME-DS (3.6 min), and Cys-DS (6.2 min) forms of the substrate were used to calculate total area and each fraction thereof.
The specific activity of FGE was measured using a discontinuous enzymatic activity assay. The substrate for FGE was a 14 amino acid peptide containing the CXPXR consensus sequence ([…] (SEQ ID NO:8)). The rate of reaction was determined by integrating the peak areas at 215 nm of the substrate cysteine (Csub) and product (fGly) peptides on reversed-phase HPLC. The identities of product (and side product) peaks were determined by RP-HPLC MS/MS (see below). Each aqueous reaction solution (120 μL) contained Csub (100 μM), FGE (0.1-1 μM), DTT (1 mM), and buffer (25 mM TEAM, pH 9). A single time course included 5 data points collected at evenly spaced intervals. The reaction was initiated upon addition of FGE stock solution and vortexing for 3 s. The reaction vial was vortexed at 1,500 RPM and 25° C. in a thermomixer R (Eppendorf). Time points were hand quenched by adding 20 μL of reaction mixture to 2 μL of 1 M HCl using a micropipettor. After completion of the reaction, each time point was analyzed by RP-HPLC (see below).
Substrate, product, and side products of the FGE substrate peptide […] (SEQ ID NO:8) were separated on RP-HPLC over 7 min with isocratic 18% MeCN in water containing 0.1% TFA. The integrated areas of the fGly (2.1 min), Csub (3.3 min), the Csub/βME disulfide (Csub-βME, 3.6 min), and substrate/substrate disulfide (Csub-Csub, 6.1 min) forms of the substrate were used to calculate total area and each fraction thereof.
Individual FGE reactions were initiated by rapidly mixing FGE into a premixed buffered solution of Csub and reducing agent. It was assumed that all buffered solutions contained oxygen at ˜270 μM at 25° C. (based upon Henry's law). Time points were chemically quenched by hand with HCl. […]. The identities of both the Cys- and fGly-containing peptides were confirmed by LC-MS/MS (FIG. 11). These assignments were then correlated with HPLC retention times (FIG. 14, panel a). The integrated peak areas of substrate and product were used to calculate the initial velocity of FGE (FIG. 14, panel b) using the method described by Boeker (Biochem. J., (1984), 223, 15; and Biochem. J., (1985), 226, 29).

CT-1.1 tagged Her2 = assay: 293 Expi transient co-transfection of FGE form and CT tagged antibody, conversion by mass-spectrometry; type: cell-based; details: Expi 293F, FGE form co-transfected with Her2 CT1.1, harvest day 5-6
Description: A 293 Expi transient co-transfection system (Life Technologies) was used for producing antibodies having a formylglycine residue at a selected site. The system produced high antibody titers (100-500 mg/L) with variable (10-95%) conversion. […] Expi 293F that were treated with or without 50 μM copper sulfate prior to transfection were transiently co-transfected in three independent experiments with expression plasmids for full-length human FGE with an N-terminal KDEL (SEQ ID NO:7) amino acid sequence (+KDEL) and CT tagged antibody at a ratio of 3:1 antibody:FGE DNA. The culture was harvested at 5-6 days post transfection, titer assessed by ELISA, and the protein was purified and conversion was measured by mass-spectrometry.
Expi 293F cells that were treated with or without 50 μM copper sulfate prior to transfection were transiently co-transfected with expression plasmids for various forms of human FGE (+KDEL, WT, myc-His) and CT tagged antibody at a ratio of 3:1 antibody:FGE DNA. The culture was harvested at 5 days post transfection, titer assessed by ELISA, the protein was purified and conversion was measured by mass-spectrometry.

[2] = other ion sources: iron sulfate 0.1 mM or 0.5 mM Day 3, MnCl2 50 uM or 10 uM Day 0, ZnCl2 50 uM Day 0
[3] = as purified from cell culture, not activated
[4] = nonlinear regression to Michaelis-Menten equation

[Cl][Mn][Cl] [MnCl2]
effect on conversion of the target polypeptide (recombinant human FGE; [2]): did not effect a detectable or significant increase

CC(O)C(=O)O (centres unmarked) [lactate]
effect on conversion efficiency of the FGE (recombinant human FGE; potential stimulators of lactate consumption, lactate or pyruvate 1.5 g/L with feeds): did not increase conversion efficiency

[Cl-].[Cl-].[Zn+2] [ZnCl2]
effect on conversion of the target polypeptide (recombinant human FGE; [2]): did not effect a detectable or significant increase

O=S(=O)([O-])[O-].[Fe+2] [iron sulfate, iron(II) sulfate]
effect on conversion of the target polypeptide (recombinant human FGE): did not effect a detectable or significant increase

O=C1O[C@H]([C@@H](O)CO)C(=O)C1=O [DHAA, (L)-dehydroascorbic acid]
effect of pretreatment on specific activity (Sc-FGE): did not change

B1: Hs-FGE: full length wild-type human FGE containing the N-terminal extension and the core, UniProt Q8NBK3 (protein, UniProt Q8NBK3 1-374, looked up)
chain: MAAPALGLVCGRCPELGLVLLLLLLSLLCGAAGSQEAGTGAGAGSLAGSCGCGTPQRPGAHGSSAAAHRYSREANAPGPVPGERQLAHSKMVPIPAGVFTMGTDDPQIKQDGEAPARRVTIDAFYMDAYEVSNTEFEKFVNSTGYLTEAEKFGDSFVFEGMLSEQVKTNIQQAVAAAPWWLPVKGANWRHPEGPDSTILHRPDHPVLHVSWNDAVAYCTWAGKRLPTEAEWEYSCRGGLHNRLFPWGNKLQPKGQHYANIWQGEFPVTNTGEDGFQGTAPVDAFPPNGYGLYNIVGNAWEWTSDWWTVHHSVEETLNPKGPPSGKDRVKKGGSYMCHRSYCYRYRCAARSQNTPDSSASNLGFRCAADRLPTMD
modifications: full-length
notes: full length wild-type human FGE containing the N-terminal extension and the core, UniProt Q8NBK3
specific activity [1, 3]: 850 pkat·mg^−1

B2: +KDEL: full-length human FGE with an N-terminal KDEL (SEQ ID NO:7) amino acid sequence (protein, UniProt Q8NBK3 1-374, looked up)
chain: MAAPALGLVCGRCPELGLVLLLLLLSLLCGAAGSQEAGTGAGAGSLAGSCGCGTPQRPGAHGSSAAAHRYSREANAPGPVPGERQLAHSKMVPIPAGVFTMGTDDPQIKQDGEAPARRVTIDAFYMDAYEVSNTEFEKFVNSTGYLTEAEKFGDSFVFEGMLSEQVKTNIQQAVAAAPWWLPVKGANWRHPEGPDSTILHRPDHPVLHVSWNDAVAYCTWAGKRLPTEAEWEYSCRGGLHNRLFPWGNKLQPKGQHYANIWQGEFPVTNTGEDGFQGTAPVDAFPPNGYGLYNIVGNAWEWTSDWWTVHHSVEETLNPKGPPSGKDRVKKGGSYMCHRSYCYRYRCAARSQNTPDSSASNLGFRCAADRLPTMD
modifications: full-length N-terminal KDEL
Conversion (%) (CT-1.1 tagged Her2; copper sulfate 0 μM): 72% and 47% and 78% and 62%
Conversion (%) (CT-1.1 tagged Her2; copper sulfate 50 μM at Day 0): 93% and 94% and 95% and 88%

B3: myc His: human FGE C-terminally tagged with myc-His (pRW529) (protein, UniProt Q8NBK3 34-374, looked up)
Formylglycine-generating …: SQEAGTGAGAGSLAGSCGCGTPQRPGAHGSSAAAHRYSREANAPGPVPGERQLAHSKMVPIPAGVFTMGTDDPQIKQDGEAPARRVTIDAFYMDAYEVSNTEFEKFVNSTGYLTEAEKFGDSFVFEGMLSEQVKTNIQQAVAAAPWWLPVKGANWRHPEGPDSTILHRPDHPVLHVSWNDAVAYCTWAGKRLPTEAEWEYSCRGGLHNRLFPWGNKLQPKGQHYANIWQGEFPVTNTGEDGFQGTAPVDAFPPNGYGLYNIVGNAWEWTSDWWTVHHSVEETLNPKGPPSGKDRVKKGGSYMCHRSYCYRYRCAARSQNTPDSSASNLGFRCAADRLPTMD
modifications: C-terminal myc-His tag
Conversion (%) (CT-1.1 tagged Her2; copper sulfate 50 μM at Day 0): 78% and 94%
specific activity of FGE isolated from Cu^2+ treated cells vs untreated cells [1]: significantly higher activity

B4: WT: WT form of human FGE, non-KDEL (protein, UniProt Q8NBK3 34-374, looked up)
Formylglycine-generating …: SQEAGTGAGAGSLAGSCGCGTPQRPGAHGSSAAAHRYSREANAPGPVPGERQLAHSKMVPIPAGVFTMGTDDPQIKQDGEAPARRVTIDAFYMDAYEVSNTEFEKFVNSTGYLTEAEKFGDSFVFEGMLSEQVKTNIQQAVAAAPWWLPVKGANWRHPEGPDSTILHRPDHPVLHVSWNDAVAYCTWAGKRLPTEAEWEYSCRGGLHNRLFPWGNKLQPKGQHYANIWQGEFPVTNTGEDGFQGTAPVDAFPPNGYGLYNIVGNAWEWTSDWWTVHHSVEETLNPKGPPSGKDRVKKGGSYMCHRSYCYRYRCAARSQNTPDSSASNLGFRCAADRLPTMD
Conversion (%) (CT-1.1 tagged Her2; copper sulfate 0 μM): 77%
Conversion (%) (CT-1.1 tagged Her2; copper sulfate 50 μM at Day 0): 86%

B5: Sc-FGE: Streptomyces coelicolor formylglycine-generating enzyme, UniProt Q9F3C7, N-terminal hexahistidine tag, expressed in E. coli (protein)
chain: MAVAAPSPAAAAEPGPAARPRSTRGQVRLPGGEFAMGDAFGEGYPADGETPVHTVRLRPFHIDETAVTNARFAAFVKATGHVTDAERFGSSAVFHLVVAAPDADVLGSAAGAPWWINVRGAHWRRPEGARSDITGRPNHPVVHVSWNDATAYARWAGKRLPTEAEWEYAARGGLAGRRYAWGDELTPGGRWRCNIWQGRFPHVNTAEDGHLSTAPVKSYRPNGHGLWNTAGNVWEWCSDWFSPTYYAESPTVDPHGPGTGAARVLRGGSYLCHDSYCNRYRVAARSSNTPDSSSGNLGFRCANDADLTSGSAAE
modifications: left off: small tags and cut ends
notes: Streptomyces coelicolor formylglycine-generating enzyme, UniProt Q9F3C7, N-terminal hexahistidine tag, expressed in E. coli
increase of specific activity on activation [1]: more than an order of magnitude
specific activity [1]: 3579±215 pkat·mg^−1
specific activity [1, 3]: 214 pkat·mg^−1 and 214±34 pkat·mg^−1
Km [1, 4]: 96 µM
kcat [1, 4]: 0.288 s⁻¹

From patent publication US11655492B2, “Activated formylglycine-generating enzymes and methods of producing and using the same” (R.P. Scherer Technologies, LLC, priority 2015, dated 2023)
